Laboratory results taken from paper PMC9287124.

Target: Shp2 (UniProt Q06124)
Assay: GST pull-down from lysate, LC-MS/MS
Conditions: reference: wild-type GST-PD-1ICD; sites Y223,Y248

With “PD-1 ICD, 194-288 (from UniProt Q15116) PD-1ICD-FF (Y223F, Y248F)” the “binding against the reference” value was “weaker”.
